Variants at the floor of the assay were thinned out.
What was measured:
biotinyl-Leu-oxazolone = experiment: self-aminoacylation, catalytic enhancement (BLO) (fold over background); higher = more active; k-Seq, kA / k0A0; sequences stand for … in GGGAAUGGAUCCACAUCUACGAAUUC…UUCACUGCAGACUUGACGAAGCUG
In short: (§1)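 Each biotinyl-aminoacyl-oxazolone, at 2–1250 μM, was incubated with mutagenized RNA pools (0.43 μM) carrying a 21-nt variable region. The 50 μL reactions contained HEPES/NaCl/KCl/MgCl2/CaCl2 buffer with 5% acetonitrile at pH 6.9–7.0 and ran for 90 minutes at room temperature. After streptavidin capture, RNA was measured by qPCR in triplicate and by Illumina sequencing, and catalytic enhancement was calculated as median kA over the uncatalyzed rate from a pseudo-first-order fit of per-sequence fraction reacted.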

biotinyl-Trp-oxazolone = experiment: self-aminoacylation, catalytic enhancement (BWO) (fold over background); higher = more active; k-Seq, kA / k0A0; sequences stand for … in GGGAAUGGAUCCACAUCUACGAAUUC…UUCACUGCAGACUUGACGAAGCUG
In short: as §1

biotinyl-Phe-oxazolone = experiment: self-aminoacylation, catalytic enhancement (BFO) (fold over background); higher = more active; k-Seq, kA / k0A0; sequences stand for … in GGGAAUGGAUCCACAUCUACGAAUUC…UUCACUGCAGACUUGACGAAGCUG
In short: as §1

biotinyl-Met-oxazolone = experiment: self-aminoacylation, catalytic enhancement (BMO) (fold over background); higher = more active; k-Seq, kA / k0A0; sequences stand for … in GGGAAUGGAUCCACAUCUACGAAUUC…UUCACUGCAGACUUGACGAAGCUG
In short: as §1

biotinyl-Val-oxazolone = experiment: self-aminoacylation, catalytic enhancement (BVO) (fold over background); higher = more active; k-Seq, kA / k0A0; sequences stand for … in GGGAAUGGAUCCACAUCUACGAAUUC…UUCACUGCAGACUUGACGAAGCUG
In short: as §1

biotinyl-Ile-oxazolone = experiment: self-aminoacylation, catalytic enhancement (BIO) (fold over background); higher = more active; k-Seq, kA / k0A0; sequences stand for … in GGGAAUGGAUCCACAUCUACGAAUUC…UUCACUGCAGACUUGACGAAGCUG
In short: as §1

| Sequence | self-aminoacylation (biotinyl-Leu-oxazolone) | self-aminoacylation (biotinyl-Trp-oxazolone) | self-aminoacylation (biotinyl-Phe-oxazolone) | self-aminoacylation (biotinyl-Met-oxazolone) | self-aminoacylation (biotinyl-Val-oxazolone) | self-aminoacylation (biotinyl-Ile-oxazolone) |
| --- | --- | --- | --- | --- | --- | --- |
| AUGCACCUAGGUCAUCGGGGG [Fam2.2 aminoacylation ribozyme variant] | 2.64 | 3.3 | 7.48 | 2.72 | 2.33 | 2.4 |
| CCACGCUUCCAGCAAUCGGUC [Fam1B.1 aminoacylation ribozyme variant] | 1.05 | 1.12 | 0.836 | 0.936 | 1.11 | 1.11 |
| CCACACUUCAAGCAACCGAUC [Fam1B.1 aminoacylation ribozyme variant] | 0.45 | 0.75 | 1.05 | 0.559 | 0.684 | 0.665 |
| CUACUUCAAACAAUCAGUCUA [Fam1A.1 aminoacylation ribozyme variant] | 0.776 | 5.04 | 15.7 | 0.841 | 0.9 | 0.871 |
| CCCCACUUCAAGCAAGCGGUC [Fam1B.1 aminoacylation ribozyme variant] | 2.61 | 5 | 9.34 | 2.33 | 2.38 | 2.15 |
| GAGUUUGCUAAUAGUCCCAAG [Fam3.1 aminoacylation ribozyme variant] | 0.812 | 1.64 | 4.57 | 1.33 | 1.1 | 1.05 |
| CCCCACUUCCAGCAAUCGGUC [Fam1B.1 aminoacylation ribozyme variant] | 2.35 | 2.16 | 1.79 | 1.78 | 2.48 | 2.18 |
| AUUCACCGAGGUCCUCGGGUG [Fam2.2 aminoacylation ribozyme variant] | 14.6 | 9.2 | 84.6 | 11.3 | 6.63 | 6.76 |
| AUUCACCUAGUUUAUCGGGUG [Fam2.2 aminoacylation ribozyme variant] | 3.48 | 4.61 | 21.2 | 3.75 | 2.61 | 2.39 |
| AUUCACCUAGGUGAUGGGGUG [Fam2.2 aminoacylation ribozyme variant] | 2.81 | 2.65 | 14.4 | 2.65 | 2.21 | 2.02 |
| CGACUUCAACCAAUCGGUCUG [Fam1A.1 aminoacylation ribozyme variant] | 2.26 | 31.6 | 64.2 | 1.35 | 1.42 | 1.56 |
| UUUCACCUAGGUCAUCCGGUG [Fam2.2 aminoacylation ribozyme variant] | 5.87 | 6.5 | 35.9 | 4.88 | 4.32 | 4.39 |
| CUAAUUCAAACGAUCGGUCUG [Fam1A.1 aminoacylation ribozyme variant] | 0.72 | 0.656 | 0.8 | 0.696 | 0.648 | 0.689 |
| AUUCAACUAGGUCAUCGGGUG [Fam2.2 aminoacylation ribozyme variant] | 7.19 | 5.46 | 40.6 | 5.65 | 3.47 | 3.6 |
| AUUCCCCUGGUCAUCGUGUGA [Fam2.1 aminoacylation ribozyme variant] | 5.32 | 5.65 | 37.6 | 5.03 | 3.33 | 2.66 |
| UAGUUUGCUAAUUGUCGCAAG [Fam3.1 aminoacylation ribozyme variant] | 1.39 | 1.51 | 1.62 | 1.29 | 1.17 | 1.25 |
| AUAAACCUGGUCAUCGAGUGA [Fam2.1 aminoacylation ribozyme variant] | 8.44 | 9.62 | 11.4 | 7.78 | 4.1 | 4.13 |
| GCACACUUCAAGCAAGCGGUC [Fam1B.1 aminoacylation ribozyme variant] | 2.06 | 3.01 | 3.91 | 1.93 | 2.54 | 2.42 |
| ACUACCCUGGUCAUCGAGUGG [Fam2.1 aminoacylation ribozyme variant] | 22.5 | 20.2 | 110 | 20.8 | 8.27 | 7 |
| AAGGUUGCUAAUAGCCGCAAG [Fam3.1 aminoacylation ribozyme variant] | 1.31 | 1.41 | 1.49 | 1.06 | 1.28 | 1.57 |
| AAGUUUGCUAAUACUCGCAAG [Fam3.1 aminoacylation ribozyme variant] | 0.553 | 0.607 | 0.812 | 0.569 | 0.652 | 0.659 |
| CUACUUCAAACUAUCGGUCUC [Fam1A.1 aminoacylation ribozyme variant] | 0.759 | 0.598 | 1.19 | 0.747 | 0.885 | 0.833 |
| AUUUACCUAGGUCAUCGGGCG [Fam2.2 aminoacylation ribozyme variant] | 4.32 | 3.25 | 3.65 | 3.93 | 3 | 2.57 |
| AAGUUUGCUACUAGUCACAAG [Fam3.1 aminoacylation ribozyme variant] | 0.772 | 1.29 | 2.36 | 0.969 | 1.02 | 0.962 |
| AUUACCCUGAUCAUCGACUGA [Fam2.1 aminoacylation ribozyme variant] | 0.777 | 0.666 | 1.16 | 0.78 | 0.876 | 0.928 |
| CCACAGUUCAAGCAUUCGGUC [Fam1B.1 aminoacylation ribozyme variant] | 2.04 | 1.86 | 1.61 | 1.84 | 2.33 | 1.88 |

Source: the supplement of paper PMC9233669
